Assay results as given in the MegaScale stability set (Tsuboyama et al. 2023).

B1: EEHEE_rd4_0763 (parent)
chain: LTVHVGNVTYHFDNPEQAEEWAKRMAKKYQGQIHVKDGQFRIE

Variants of: B1
Assay: folding stability dG (cDNA display proteolysis); higher = more stable
Settings: PBS, room temperature

Folding stability dG [kcal/mol]: each site, then its substitutions
K36: D 1.51 | W 1.65 | P 0.849 | Y 1.7 | S 1.69 | G 1.39 | E 1.84 | L 1.7 | Q 1.79
H11: Y 1.85 | N 1.25 | G 0.755 | W 1.71 | K 1.6 | R 1.58
L1: Q 1.45 | V 1.86 | P 1.73 | C 2.7
G38: C 2.15 | W 0.872 | Q 0.9 | S 0.873 | H 1.02 | K 0.828 | A 0.755 | P 1.18 | L 1.18
V5: E 0.355 | C 2.66 | I 1.69 | D 0.649 | K 0.531 | L 1.54 | S 0.647 | A 1.32 | N 0.616 | G 0.415
M25: P -0.51 | N 0.629 | R 0.567 | Q 0.839
H34: Q 1.61 | N 1.52 | G 1 | S 1.83 | P 0.852 | I 2.21 | D 1.26 | K 1.6
G6: A 1.41 | K 1.18 | F 1.84 | D 1.43 | S 1.11 | T 0.772 | R 1.31 | W 1.5 | V 0.969 | E 1.01
F40: V 1.55 | D 1.03 | K 1.04 | H 1.02 | R 1
W21: C 2.55 | R -0.245 | L 0.668 | M 0.944 | Y 1.5 | N 0.008 | T 0.307 | F 2.28 | D -0.466 | E 0.341 | I 0.395 | A 0.89
E43: W 1.55 | N 1.06 | R 1.36 | H 1.44 | D 1.44 | G 1.26 | T 1.66 | K 1.23 | I 2 | A 1.34
D37: P 0.309 | L 1.12 | I 0.903 | C 2.15 | N 1.43 | H 0.769 | T 0.617 | W 0.774
V3: I 1.09 | Y 0.756 | T 0.36 | P 0.241 | G 0.606
P15: S 1.69 | E 1.47 | V 1.71 | W 1.91 | C 1.86
Y29: K 0.706 | E 0.616 | H 1.32
T9: S 1.4 | F 1.37 | V 1.98 | M 1.55 | L 1.58 | A 1.58 | K 1.38 | R 1.4 | N 0.836 | E 1.29
E20: M 1.7 | L 1.69 | C 2.44 | I 1.58 | N 1.58 | Q 1.69 | A 1.87 | K 1.8 | R 1.81
Q39: C 2.92 | K 1.23 | A 1.71 | L 0.835 | S 1.57 | P 0.884 | F 1.17 | V 1.57 | T 1.29 | E 1.88
N7: Y 1.62 | C 2.65 | E 1.37 | V 1.4 | P 1.45
F12: L 0.531 | Q -0.143 | V 0.101 | W 0.638 | P -0.199 | K -0.024 | E -0.274
R24: Q 1.54 | F 1.79 | E 1.43 | S 1.33 | P -0.675
G31: V 1.78 | S 1.47 | Q 1.25 | E 0.971 | F 1.69 | N 1.02 | I 1.82
I42: S 1.06 | N 1.05 | L 0.845 | R 0.894 | G 1.2 | K 0.942 | W 1.32 | H 1.12 | Q 0.913 | M 0.632
K28: S 0.897 | T 1.03 | Y 1.72 | M 1.5 | D 0.954 | I 1.61
A26: R 1.06 | M 1.28 | N 0.911 | L 1.25 | S 1.14 | W 1.28 | H 0.862
E19: C 2.53 | S 1.39 | T 1.41 | I 1.87 | M 2.07 | A 1.71 | F 2.3 | K 1.62
R41: C 2.95 | M 1.94 | Q 1.66 | K 1.38 | P 1.21 | T 2.02 | W 3.13 | L 1.98 | D 1.34 | I 2.6 | E 1.59 | Y 3.29
K23: A 1.3 | Y 1.62 | S 1.16 | V 1.56 | F 1.61 | R 1.85 | H 1.58 | T 1.32 | D 0.88 | E 1.2
Q32: M 1.49 | N 1.33 | F 1.53 | T 1.99 | I 2.03 | K 1.71 | D 1.27 | P 0.998 | V 2.02
A18: N 0.045 | F 1.46 | Q 0.969 | I 1.01
Q17: M 1.61 | D 1.8 | C 2.6 | P 0.493 | L 1.71 | G 1.11 | I 1.51 | K 1.63
V8: H 1.72 | I 1.7 | A 1.58 | D 1.19 | Y 1.78 | R 1.96
K27: P 0.724 | D 1.44 | M 1.74 | Y 1.51 | T 1.58 | R 1.75 | C 2.38 | S 1.55 | W 1.45 | F 1.57
A22: N 0.383 | K 0.757 | M 1.36 | H 0.665 | E 0.234 | R 1.01 | G 0.659 | D -0.159
E16: W 1.67 | Y 1.66 | T 1.68 | A 1.68 | F 1.63 | V 1.75 | G 1.48 | S 1.61
N14: W 1.24 | L 1.59 | S 1.67 | E 1.36 | K 1.6 | G 1.03 | P -0.002 | F 1.47
Q30: S 1.66 | W 1.31 | H 2.02 | L 1.39 | D 1.52 | I 1.18 | R 1.79 | T 1.2
V35: S 1.15 | C 2.27 | M 1.61 | W 1.81 | G 0.956 | L 1.62 | R 1.08 | H 1.21 | N 1.18 | I 1.74 | E 1.21 | K 1.17
H4: N 1.27 | E 1.24 | Y 1.59 | M 1.8 | F 1.6 | A 1.55 | W 1.82 | R 1.82 | T 1.85 | P 0.289 | L 1.88
Y10: H 0.965 | M 0.903 | R 1.18 | L 0.997 | P 0.292
I33: Y 1.2 | N 0.836 | E 0.735 | P 0.833 | T 0.877 | M 1.21 | H 0.852 | L 1.65 | C 2.07 | F 1.41
T2: S 1.55 | G 0.823 | V 1.61 | L 1.64
D13: C 2.24 | K 1.67 | P 1.45 | G 1.37 | Y 1.34 | N 1.72 | M 1.49 | F 1.36 | A 1.43
